Laboratory results reported in patent publication US20190248900A1 (Y BIOLOGICS, published 2019).
Changes are numbered by the printed parent chain.

B1: PD1-41C9 (antibody, V domains shown)
VH: QMQLVESGGGVVQPGRSLRLSCAASGFTFSSYAMHWVRQAPGKGLEWVAVISYDGSNKYYADSVKGRFTISRDNSKNTLYLQMNRLRSEDTAVYYCTTTTFDSWGQGTLITVSS
VL: DIVMTQTPLSLPVTPGEAASISCRSSQSLLDSEDGNTYLDWYLQKPGQSPQLLIYTLSHRASGVPDRFSGSGSGTDFTLKISRVAAEDVGLYYCLQRMGFPYTFGQGTKLDIK
notes: scFv-phage in the screening ELISA; whole IgG in the other assays
B2: PD1-49A2 (antibody, V domains shown)
VH: B1 VH with M2V, S75P, R85S, S88A, Q106R, I110V
VL: B1 VL with T7S, A18P, L30F, E33D, A85E, L91I, L110V, D111E
notes: scFv-phage in the screening ELISA; whole IgG in the other assays; also called Parent 49A2
B3: PD1-45D6 (antibody, V domains shown)
VH: QVQLVESGGGVVQPGRSLRLSCAASGFTFSSYAMHWVRQVPGKGLEWVAVISYDGNDKYYADSVKGRFTISRDNSKNTLYLQMNSLRAEDTAVYYCVPTTFEYWGQGSQVTVSS
VL: DIVMTQTPLSLPVTPGEAASISCRSSQSLLDSDDGKTYLDWYLQKPGQSPQLLIYTLSYRASGVPDRFSGSGSGTEFNLRISRVEAEDVGIYYCMQRVEFPFTFGQGTKLDIK
notes: as for B1

Target: T1, AGR2 (Homo sapiens (Human), UniProt O95994 21-175)
T1 sequence: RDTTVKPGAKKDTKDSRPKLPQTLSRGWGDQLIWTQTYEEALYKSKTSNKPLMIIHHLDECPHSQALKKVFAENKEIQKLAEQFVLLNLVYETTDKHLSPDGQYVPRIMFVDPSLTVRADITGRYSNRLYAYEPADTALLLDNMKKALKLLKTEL
Test: ELISA

Binder	binding result
B1	no binding (tested: 1 ug/ml)
B2	no binding (tested: 1 ug/ml)
B3	no binding (tested: 1 ug/ml)

Target: T2, SEMA5A (Homo sapiens (Human), UniProt Q13591 23-968)
T2 sequence: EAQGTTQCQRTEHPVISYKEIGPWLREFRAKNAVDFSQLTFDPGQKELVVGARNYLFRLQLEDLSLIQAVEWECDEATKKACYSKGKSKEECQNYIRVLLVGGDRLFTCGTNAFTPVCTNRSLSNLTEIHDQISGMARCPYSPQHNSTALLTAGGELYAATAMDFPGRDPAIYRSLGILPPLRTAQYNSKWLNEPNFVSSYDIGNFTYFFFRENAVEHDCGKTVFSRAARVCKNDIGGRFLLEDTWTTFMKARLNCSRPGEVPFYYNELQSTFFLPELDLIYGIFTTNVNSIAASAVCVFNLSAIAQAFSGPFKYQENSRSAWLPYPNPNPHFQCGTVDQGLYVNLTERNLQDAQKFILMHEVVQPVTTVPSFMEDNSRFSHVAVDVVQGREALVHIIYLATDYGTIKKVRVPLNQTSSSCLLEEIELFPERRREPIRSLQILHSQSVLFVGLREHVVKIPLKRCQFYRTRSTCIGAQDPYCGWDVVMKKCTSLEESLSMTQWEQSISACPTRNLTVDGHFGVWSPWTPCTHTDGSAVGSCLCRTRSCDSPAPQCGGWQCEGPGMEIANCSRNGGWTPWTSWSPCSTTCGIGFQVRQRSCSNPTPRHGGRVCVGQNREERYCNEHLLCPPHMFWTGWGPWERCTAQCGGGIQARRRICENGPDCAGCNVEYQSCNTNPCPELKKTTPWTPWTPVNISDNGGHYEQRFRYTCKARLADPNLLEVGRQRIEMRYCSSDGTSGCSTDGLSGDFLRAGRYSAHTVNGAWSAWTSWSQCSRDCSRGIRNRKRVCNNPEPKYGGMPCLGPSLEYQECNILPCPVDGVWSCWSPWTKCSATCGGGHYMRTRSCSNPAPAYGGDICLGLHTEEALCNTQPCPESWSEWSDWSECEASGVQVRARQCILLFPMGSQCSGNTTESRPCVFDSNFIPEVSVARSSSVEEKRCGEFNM
Test: ELISA

Binder	binding result
B1	no binding (tested: 1 ug/ml)
B2	no binding (tested: 1 ug/ml)
B3	no binding (tested: 1 ug/ml)

Target: T3, DKK4 (Homo sapiens (Human), UniProt Q9UBT3 19-224)
T3 sequence: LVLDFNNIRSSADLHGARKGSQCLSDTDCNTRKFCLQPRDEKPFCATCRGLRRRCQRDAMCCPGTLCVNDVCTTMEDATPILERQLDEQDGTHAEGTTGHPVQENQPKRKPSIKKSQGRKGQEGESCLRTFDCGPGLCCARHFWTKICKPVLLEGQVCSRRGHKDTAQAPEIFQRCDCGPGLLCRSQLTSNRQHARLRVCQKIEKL
Test: ELISA

Binder	binding result
B1	no binding (tested: 1 ug/ml)
B2	no binding (tested: 1 ug/ml)
B3	no binding (tested: 1 ug/ml)

Target: APCDD1 (Homo sapiens (Human), UniProt Q8J025 27-492)
Sequence (Q8J025 27-492 limits assumed): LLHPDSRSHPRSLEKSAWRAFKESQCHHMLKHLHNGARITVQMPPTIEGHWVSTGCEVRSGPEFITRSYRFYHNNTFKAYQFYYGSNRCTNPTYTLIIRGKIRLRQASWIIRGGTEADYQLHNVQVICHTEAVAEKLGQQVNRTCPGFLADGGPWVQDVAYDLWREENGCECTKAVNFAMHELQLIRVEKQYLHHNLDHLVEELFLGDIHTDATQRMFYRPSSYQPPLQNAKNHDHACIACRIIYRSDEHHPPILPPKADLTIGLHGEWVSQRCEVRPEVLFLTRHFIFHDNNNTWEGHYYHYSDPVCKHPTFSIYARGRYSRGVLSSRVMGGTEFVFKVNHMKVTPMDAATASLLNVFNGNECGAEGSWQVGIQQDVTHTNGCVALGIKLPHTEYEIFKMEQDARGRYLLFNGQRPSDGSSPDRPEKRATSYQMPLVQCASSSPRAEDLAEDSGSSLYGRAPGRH
Test: ELISA

Binder	binding result
B1	no binding (tested: 1 ug/ml)
B2	no binding (tested: 1 ug/ml)
B3	no binding (tested: 1 ug/ml)

Target: MICA (Homo sapiens (Human), UniProt Q29983 24-307)
Sequence (Q29983 24-307 limits assumed): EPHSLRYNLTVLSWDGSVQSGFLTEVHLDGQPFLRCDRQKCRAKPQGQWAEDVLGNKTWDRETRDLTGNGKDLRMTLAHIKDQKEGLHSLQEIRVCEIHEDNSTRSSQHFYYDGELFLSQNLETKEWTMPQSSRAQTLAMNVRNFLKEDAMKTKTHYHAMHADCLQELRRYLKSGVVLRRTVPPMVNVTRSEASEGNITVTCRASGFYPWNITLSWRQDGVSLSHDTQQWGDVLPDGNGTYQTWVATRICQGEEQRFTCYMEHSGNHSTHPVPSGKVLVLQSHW
Test: ELISA

Binder	binding result
B1	no binding (tested: 1 ug/ml)
B2	no binding (tested: 1 ug/ml)
B3	no binding (tested: 1 ug/ml)

Target: T4, CD320 (Homo sapiens (Human), UniProt Q9NPF0 36-229)
T4 sequence: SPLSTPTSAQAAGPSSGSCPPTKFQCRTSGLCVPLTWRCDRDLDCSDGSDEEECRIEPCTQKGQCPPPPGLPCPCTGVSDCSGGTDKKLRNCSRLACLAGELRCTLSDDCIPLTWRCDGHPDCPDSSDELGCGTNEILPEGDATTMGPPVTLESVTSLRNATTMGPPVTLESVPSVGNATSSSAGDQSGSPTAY
Test: ELISA

Binder	binding result
B1	no binding (tested: 1 ug/ml)
B2	no binding (tested: 1 ug/ml)
B3	no binding (tested: 1 ug/ml)

Target: T5, ICOSLG (Homo sapiens (Human), UniProt O75144 19-256)
T5 sequence: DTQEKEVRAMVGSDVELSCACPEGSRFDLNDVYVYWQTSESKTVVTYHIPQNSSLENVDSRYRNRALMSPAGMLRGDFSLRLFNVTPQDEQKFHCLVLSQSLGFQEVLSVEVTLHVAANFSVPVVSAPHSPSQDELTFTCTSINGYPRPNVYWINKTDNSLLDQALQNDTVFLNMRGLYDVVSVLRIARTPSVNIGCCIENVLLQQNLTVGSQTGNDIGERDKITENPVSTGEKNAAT
Test: ELISA

Binder	binding result
B1	no binding (tested: 1 ug/ml)
B2	no binding (tested: 1 ug/ml)
B3	no binding (tested: 1 ug/ml)

Target: T6, C2orf28 (Homo sapiens (Human), UniProt Q6UW56 31-199)
T6 sequence: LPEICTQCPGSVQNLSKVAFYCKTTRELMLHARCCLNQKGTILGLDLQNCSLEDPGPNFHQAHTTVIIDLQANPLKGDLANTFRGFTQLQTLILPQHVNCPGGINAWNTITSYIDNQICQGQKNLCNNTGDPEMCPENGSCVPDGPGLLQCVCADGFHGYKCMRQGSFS
Test: ELISA

Binder	binding result
B1	no binding (tested: 1 ug/ml)
B2	no binding (tested: 1 ug/ml)
B3	no binding (tested: 1 ug/ml)

Target: T7, SPARC (Homo sapiens (Human), UniProt P09486 18-303)
T7 sequence: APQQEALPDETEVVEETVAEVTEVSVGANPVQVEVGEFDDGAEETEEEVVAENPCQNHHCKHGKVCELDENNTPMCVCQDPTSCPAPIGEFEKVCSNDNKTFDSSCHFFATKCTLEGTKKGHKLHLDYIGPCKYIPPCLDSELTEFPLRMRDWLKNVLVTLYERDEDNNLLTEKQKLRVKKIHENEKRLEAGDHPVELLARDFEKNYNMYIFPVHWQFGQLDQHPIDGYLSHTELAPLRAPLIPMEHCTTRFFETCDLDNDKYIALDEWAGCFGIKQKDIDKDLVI
Test: ELISA

Binder	binding result
B1	no binding (tested: 1 ug/ml)
B2	no binding (tested: 1 ug/ml)
B3	no binding (tested: 1 ug/ml)

Target: HAPLN4 (Homo sapiens (Human), UniProt Q86UW8 30-402)
Sequence (Q86UW8 30-402 limits assumed): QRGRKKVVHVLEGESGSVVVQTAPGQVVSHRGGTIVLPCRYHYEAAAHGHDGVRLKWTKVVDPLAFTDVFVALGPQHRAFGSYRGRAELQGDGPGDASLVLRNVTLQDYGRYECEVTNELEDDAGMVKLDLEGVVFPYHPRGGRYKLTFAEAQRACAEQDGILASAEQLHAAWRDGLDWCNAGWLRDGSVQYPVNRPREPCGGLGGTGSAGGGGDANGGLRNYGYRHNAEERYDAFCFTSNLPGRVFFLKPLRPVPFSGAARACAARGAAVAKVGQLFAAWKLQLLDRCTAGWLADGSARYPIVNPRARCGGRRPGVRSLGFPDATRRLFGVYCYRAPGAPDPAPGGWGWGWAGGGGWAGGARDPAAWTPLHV
Test: ELISA

Binder	binding result
B1	no binding (tested: 1 ug/ml)
B2	no binding (tested: 1 ug/ml)
B3	no binding (tested: 1 ug/ml)
